Assay results: publication PMC2660596

Biological target: Bacillus thuringiensis Cry11Ba toxin (Bacillus thuringiensis) (UniProt Q45730)
Assay: ELISA

APN2t, truncated 70-kDa AgAPN2 peptide (residues 228 to 843) (domain or fragment)
Kd: 6.4 nM
